Source: the DeepSol protein solubility set

Assay: soluble on expression in E. coli; label from the status in PepcDB or PDB records

Sequence | soluble on expression in E. coli
MGHHHHHHSHMYSLNQEIKAFSRNNLRKQCTRVTTLTGKKIIETWKDARIHVVEEVEPSSGGGCGYVQDLSSDLQVGVIKPWLLLGSQDAAHDLDTLKKNKVTHILNVAYGVENAFLSDFTYKSISILDLPETNILSYFPECFEFIEEAKRKDGVVLVHCNAGVSRAAAIVIGFLMNSEQTSFTSAFSLVKNARPSICPNSGFMEQLRTYQEGKESNKCDRIQENSS | not soluble
MSLARLQFQLKVDGLEDESLVVRGFEGQESLSDSVWRCEPCYGFRYQVDLASALSNLTAEQFVDQTAHLTILRDGQVVQQINGIVRQLSKGDTGHRHTFYSLTLVPALERLSLRSNSRIFQQQSVPEIISILLQEMGIEDYAFALKRECAQREFCVQYRETDLQFLHRIAAEEGLVYSHLHEAQKHTLLFTDSSDSQPKLAKPVPYNALAGGEINLPYVVDLQFKTTAQVSHTELKDYSFKKPAYGFTQRTQGKDIAYQQPNYEHFDAPGRYKDDANGKAFSQIRLEYLRRDALLADAKSDEPLLLAGVRFDLQDHLDHAMNRDWLVVQANHQGTQPQALQEEGGSGATTYSNQLKLIPAHITWRARPCAKPQVDGPMIATVVGPQGEEIYCDNFGRVKVHFPWDRYSSSNEKSSCWVRVAQEWAGSQYGSMAIPRVGHEVIVSFLNGDPDQPIITGRTYHATNTAPYALPDHKTKTVLRTETHQGQGYNELSFEDQAGSEQILLHAQKDWDALIEHDHTEVIRHDQHLTVDNDRFTRIQRNQHLTVEGEVRSKIALDSSHEVGASLQHKVGQRIAVEAGKEISLKSGAKIVVEAGAELTLKAGGSFVKVDAGGVHLVGPAINLNAGGSAGSGSAYGGQLAAAPRMLAQAKPVAELVQPDIAASMQSGAARVIDVASLPTMMPSSANNTANDEPVAEEKTPERILKSDLLKPSDELEKLAKRQASAYRQGNHSDEVKLLQEALIKLGFDLGKAGADGDFGSKTKTAIEQFQKSYQPSHQTHPSYSIGAVDGIVGKGTLLALDEALMDGWVYENNIYQIWPLGKTSEKYESAGRGPGVISTGNGDYGGASYGCYQMSSNLGVVQKYIQSSKFKEFFSGLNPATKEFNVVWQDIASRYPQEFREEQHQFIKRTHYDIQIGHLRGKGLLFEHNRAAVHDLIWSTSVQFGGRTNLIFNALNGQNMESMTDKDIIILVQDYKLVNTERLFKSSPSWWSDLKKRAVSEKKALLELEIDGLEVDIKEGGSHHHHHH | not soluble
MGSDKIHHHHHHMTVCVAVKVQDCIVFAADSTTSLQAVGANGEHVTMNTYDHANKLFNLRKGCPVAAMTAGIGNFGGSSISTVSKDFRSLIDRRAEGYALNWENYTIEEIVGLARKYFFEERFSSLSEKPQGSFQYWVGGYSSGEQMGEVWQFQIHNGECLEPQCSISRNVASGLAWGGAPEAINRLILGYGQRIGDALVEGGLDASLVPQAIDGIARYTQCSLVHAAMPTGDAIDLAKFLAETTKQFVRFMPGSNSVGGDLDIATITKHENFKWIARKHFYNTRINPLETNHA | not soluble
MGSDKIHHHHHHMSPKTALNLFSLLWQNYSARVPYARTYEQMITAAGGTVANDHIAFRSLRLLVDSPRGKVNLGINYLSQIAEALGYEPAGEYNFPQTHLYARHYRHPQQIEFDLPKLFISELIVDELPDNIIQLITQTVSTVADEFTSPLTYFSPAEGNDGVIAQQLQKFFTRPWMTPRRSVVEAVNQVTQYGAWVLLHGYAVNHFTGYVNRHQTPEYADIDDTARGLANLGVPMKAEIEGDVTWGLRQTATQAVKEMVTVIDDISGQEVEIPWTYAYYEIAQRYPLQVEPGKEKLFDGFLGNNAQQLFEMTRLVECDAAKIGK | not soluble
MGSDKIHHHHHHMPLQQESARQERKPVILMSMGQQDRNGHAYQVMTHKYMQPVVDISDCIPLLIPTCFGVADIEQYLDMADGVYLSGAASNIDPSLYGQENLTPEKKQDLARDLVDIALIKGAVKRGLPILGICRGMQEMNIAFGGDLYQKVHDEDHLNDHREDPDTPPDVQYGASHSISMVKGSWLHKLLGDTIEVNSLHGQGIKTLGKGLEALALAEDGLVEALHAPYLPQFTLGVQWHPEWKALENPDSIKIFKAFGEACRRRAGSALDLRIDKAS | not soluble
MGSDKIHHHHHHMRIVNDVKKILFLAANPQNTVRLRLDKEVEEIRTTLQLSVNRDRFVIESRGAVRPDDLQQYMYNLKPQIVHFSGHGGGEYGLAFEDENGAEQPVSTDALAKFFQLFAGEVNCVVLNACYASVQAEAIAQYIPYVVGMNQAIGDEAARQFAQGFYRAIWDNRSIEDAFASGVNAIALDGIPEDLTPVLLRQADRVTTQTIPSNSVSLESPDGQVRIDSRFYVHSSYEERCYAEVKKPGSLIRIKSPHNMGKSSLMVRVLGYAAQLGYRTVTLNLEQVNQKFFNDLDKYMQWFCASVGKPLGVRIKIEEYWDDIFGANDNSTDYFEKYLLDDTEPPLVVAIDNFDRVFKYPDIETDFCGLLRGWHERSRSNQLWGKLRFVIVYSQEPYLQKDINQSPFNVGLPIELGEFTTAQVQELIRLHGLDWSGQFVKQFMDLIGGHPYLVRSALYHIAAGDLTLEEFLRTAPTEAGIYSDYLLGHLKSLEDYPTLGAAMKTVVTSEFPVRLRSEEAFRVWLCGLRITSSPDANCIVNIFAIA | not soluble
MGSDKIHHHHHHMAKSKIDELMSVGIDIGKDTFHVVAFDPDGHLVMRKRIKRLALVATFEKLPRCVVGMEACLSAHFVSRTLRKMGFEPGIIPAIYVKPFIKGQKNDYNYAEAISEAALRPNLPVVPEKSQEQLDLQALHRVRSRLVSRRTASINQIRAFLIEQGITVRKGLRVLKNSFGKILDERKDEISPRMRTILIGLYGDWLWLDDRIDTVSKEIEQISRTEENCINVMTVPGIGPMISTAMVAAIGTGEAFGRGRDFAAWVGLVPRQYSTGGRTILGRITKRGSRYLRMLFVQAAKVILMRTNRWPDFSFGDWLIKAAERMNRNKLAVALANKLARMA | not soluble
MDYNNITEALQAFRTEKAYRHAPLRSCFFDMDGVLFDSMPAHARSWVEAAGECGIAAEPLDFYRWEGQKGSDTIKILFERGYGRLPTEKEIADMYGRKSQLFALYNSGNVIDDAPALVSDVCDRGLRIMLVTGSSQTDILQRLQRSYGDNFSPANMVTGADVHRGKPHPEPYLKALECVGMSPSEAFVVENAPLGVR | not soluble
MGSDKIHHHHHHMGCKSVYADSCWISSPTLNFGSVNTQQVSSKTDLDVTCNQYNNVKTSFNLCFYIEDNSPLGINPRRLISLSWPFDYLNYDLYYDPSFSRMIDNKAAPNNLLCKSLQIENNGQQTVQIPIYGKVYANQNVKADNYQSYNMTVKLLYKSKTGDVVPSVEETLAQQNMVQNYMKTTTKFENSCAVVGVNTLDFGSIISLNQPIYGQTSIQLKCPTNTALKVGLDTGLYASGTQRRMTNAGQFIQYDLYQDSAYSIAWGTSDNSVLKLDTYQPVFTIPVYGRILPQNQNLKAGEYRDTITIKLTY | not soluble
MIPDQRRELMLRQLRKHQVLSVHQLMEMFDCSHMTIRRDIAQLEQEGRAYSVTGGVRIASQVHSEPSHQSKAVVELPHKQGMARLAAGLLHPDMTIYLDAGTSTLEIVPHIIALSGMTVVTNDFGVVNALADAAHVDVIHTGGLLDHPNRSSVGGLAAATLRQLATDVAFMSTSSWDLQRGTTTPSALKVEVKQAAMQSASQTVLVATSSKYGTFGMYKVAGLDQFDTIISDAALAEAAADGIRKQRIELLLAPVGGRSKLEHHHHHH | not soluble
MGHHHHHHSHMEPRVTQRKRPLDGCMGKITGITSDILKYDHKCFKLSLPAKFPEVCGSDEVFPDPDLLHVLPVAGSLQQSIDQCCLQLESLCRPGLLCAHPTLLFKLHSSMKNRPFFSLIYTYVKKTQQVRKRDRKPRGQVAAGPNPTSVM | not soluble
MGSDKIHHHHHHMKAISNDKPQGVCATDFASVLGEENAVCLWENIEIGQQKRIQQAVTSGKPPTCIVYPRTQQQLAAVIAKAYSHNWRVLPCGSGSKLSWGGLAKGVDVVVGTERINQLIEHAVGDLTVTVEAGMKFSDLQALLAKSRQFLALDPTAPQSATIGGIVATGDTGSLRQRYGSVRDQLLGVTFVRADGEIAKAGGRVVKNVAGYDLMKLLTGSYGTLGFISQLTFRVYPLSEASGTVVLTGSAEAVSQAADILRGSALTPVQADLLSTKLVSSLGLGEGLGLIARFQSISESVKEQSNRVLEVGQKLGLDGAIFADADEASLWQRLQERIHSTATESVITCKIGVLPTAAVDILTQVGLGLIHISSGLGLLQLEDKNQVLKVREQLRSAGSDGTQANSGFLTILEAPMAVKEQVDVWGYNGNALPLMRRIKEQFDSKNILSPGRFVGGI | not soluble
MGSDKIHHHHHHMSYITTKNQYITVSNNKIAYRELSKGKSDIPLVMLVHLAATLDNWDPKLLDLLAEQHHVIVLDLPGVGASQGKVAPTIPGMAEQAVSIIKALGYEKINLLGLSMGGFIAQEIVRLDSQLVNRLILAGTGPRGGFEVDKVTGKTFRYMLKAGLERVDPKRYIFYNHDEAGRLEAEKVLGRMGQRSAAHADKDMNVPGFLTQLKAIKRWGREPQDDMTFITQPTLIVNGDKDMQVPTENSYTMHEKIKNSQLIIYPNAGHGSIFQNVEDFSKALLAFLEETNA | not soluble
MGSDKIHHHHHHMWEVRYLNAELLDLKLWGEGCRLYQIRQMGDDEICLIQTDDTPQESLCERWQVVYAERGAVQQLLFEFTDEAEACEFMYREIKRIKHPHLVGLFPTDAEAEQFCQVLTQLEIQFSHDPQGRVRVYDQEIFTVERHFGCQLPLRKWLSVPERIHVTLARLRKFDPYNCYAQITTNPPIGSEAKLSELEAEHRIKLPEVYRTFLLEVCNGGNWERLGHYWSAEEVMANNSAQLWNQPLPEFLAKLKAAKSGDWLTNPGNRQYPGLLRIVDWDNPVRDLFLTQEGYEVEIQGDWIRFCEFSPEQWLKDFLDDIQYGLFPIEGLLAFLRSGELIRDYPYFHTVNFARLLAETIGLNIDPELTNEQVKMSDEIDYKINQWRIENMGKMRYNFGFNAEQAEVRRQRILERLEYLYQLYS | not soluble
MGSDKIHHHHHHMKTWTPDLSRSDGPRYLAIADVIEMDLKSGRLLVGDRLPPQRDLAKRLAIDFTTVARGYVEAQKRGLVATHVGRGTFVTGGPEKERRGFVSEAALDARRMSVVDFSMNMPPEPDDPDLLARMQEGLSAVATNMIPLLRYQGFGGAGMDKEAAASWLSRRGLVPSQERIFVTPGAHPALLAIFGLLAKPGEMVLSENITYPGMRSIAAQLRLNLTGLPMDADGIIPGAFAEICETAKPKALYLNPTLQNPMTLTIPEKRREEICAVARKYHVPIVEDDAYGFIPLHSPAPLAAMAPDLTWHIGGLAKCIGAGLRLAYVVVPDTKAAWPFASAMRAASVMASPLSAALATRWIEDGTADSILRFIRTEAAARQALVAEVLPAGSYQSDPISFNIWLPLTNGWTRSTFGTHMRASGIGVVASDAFTVDGVAEEAVRVCLGGPIRRETLKGALEFMGHALEGSPQMAGTFF | not soluble
MAHHHHHHMAISATGTLAVLKVYQLTDAAARLSRAEVDAALEELMGLRVNDSLVQYLSYCYVPPHRVVLVMQYVPGGTLREMKSRYGRKLPLTAVRRNVASMLRGLAHLHGRGVIHGRLCPENVMVGVEGRWRLKGMLLGAAPLIMHQETYYVSPEVAAGGAKTAANDVYALGLLLLAMLTDSHPWQWSANAALDRSRKELDSLLADSTAFREALRNGLLTPVPTPADTDETLRTVLEACLRTAPGDRPTALRLQELRCDRTS | not soluble
MSLGMHLPGGIVENVRKRPGMYCGDVGEYGLHHLVYFLLDVAYEEARRGECRDVVLEVGGDGSIALFCTSRTVTAENLVRVATGAGFLGRPPGDGWGWDSMLVVSLALSSRYQVDIWADGRQWRVMGEHGHPQGEGAAVTPMEPMPVSAERGVRVHFVPDATIFEVLAFDRARLSRRCNELAALAPGLRVSFADLQRGERTLWHLPGGVAQWAHVLTEARPQLHPEPVVFDFTWDGLRVQCALQWCEDEDSTLLSFANAVRTVRHGAHVKGVTQALRGALAKLSGETRGAFPWARVAQGLTAIVAVSGPRRQMAFAGPTKELLAIPGLEEAIRKQLQPLFIELLREHPVTPALLARRTSGSEGHHHHHH | soluble
